Measurements from patent US20150328292A1, “CASPASE POLYPEPTIDES HAVING MODIFIED ACTIVITY AND USES THEREOF” (BELLICUM PHARMACEUTICALS, INC., priority 2014, published 2015).
Where a chain is given by its changes, count along the chain named. In names and notes the source's numbering stands. Entries after “also recorded” stand apart in the source; their conditions may differ. Like-named read-outs stand apart in the source and are kept apart here. Where a SMILES comes first, the peptide text is derived from it. The star is where a group is joined. Cbz = O=C(OCc1ccccc1)*; CH2F = FC*

Columns and labels:
[1] = cited from earlier work; for safety and tolerability: healthy volunteers, 0.01-1.0 mg/kg
[2] = biological target: chimeric caspase-9 polypeptide (Homo sapiens, UniProt P55211+P62942, F37V); test: AP1903-triggered apoptosis/signaling of cells expressing chimeric caspase-9 polypeptide; format: cell-based
Chain of chimeric caspase-9 polypeptide (P62942 2-108 F37V limits assumed): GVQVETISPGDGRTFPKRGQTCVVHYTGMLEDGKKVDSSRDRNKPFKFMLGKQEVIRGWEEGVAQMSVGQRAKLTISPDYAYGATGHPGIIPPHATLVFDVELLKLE
Chain of chimeric caspase-9 polypeptide (P55211 135-416 limits assumed): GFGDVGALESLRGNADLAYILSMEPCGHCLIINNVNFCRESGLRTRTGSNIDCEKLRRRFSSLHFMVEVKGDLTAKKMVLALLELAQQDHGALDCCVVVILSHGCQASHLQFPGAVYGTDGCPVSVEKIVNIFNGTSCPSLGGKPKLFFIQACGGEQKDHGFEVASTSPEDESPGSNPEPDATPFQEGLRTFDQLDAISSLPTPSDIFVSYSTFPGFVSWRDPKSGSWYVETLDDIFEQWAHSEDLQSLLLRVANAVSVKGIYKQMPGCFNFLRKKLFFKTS

CD3+ΔCD19+ cells = test: CASPALLO phase I clinical trial, AP1903 in patients with GvHD after iCasp9 T cells; format: in vivo, human
human CD3+CD19+ T cells = test: AP1903 dose-dependent elimination in vivo of transduced T cells in NSG mice; parameters: species or system mouse
Protocol: T cells were transduced with SFG-iCasp9-2A-ΔCD19 retrovirus and injected i.v. into immune deficient mice (NSG). […] After an additional 24 hours, mice were sacrificed and lymphocytes from the spleen (FIG. 61A) and peripheral blood (FIG. 61B) were isolated and analyzed by flow cytometry for the frequency of human CD3+CD19+ T cells.
T cells were transduced with SFG-iCasp9-D330E-2A-ΔCD19 retrovirus and injected i.v. into immune deficient mice (NSG). […] After an additional 24 hours, mice were sacrificed and lymphocytes from the spleen (A) were isolated and analyzed by flow cytometry for the frequency of human CD3+CD19+ T cells.

[3] = tested on: F-Casp9M.I.GFPhigh-transduced T cells; test: annexin-V/7-AAD staining of CID-treated transduced CTLs; format: cell-based, human; settings: 100 μM for 1 hour prior to adding CID
Protocol: CID (AP20187; ARIAD Pharmaceuticals) at indicated concentrations was added to transfected 293T cells or transduced CTLs. Adherent and nonadherent cells were harvested and washed with annexin binding buffer (BD Pharmingen, San Jose, Calif.). Cells were stained with annexin-V and 7-amino-actinomycin D (7-AAD) for 15 minutes according to the manufacturer's instructions (BD Pharmingen). Within 1 hour after staining, cells were analyzed by flow cytometry using CellQuest software (Becton Dickinson).

HEK293T/16 cells [4] = test: SEAP reporter-based surrogate killing assay (basal activity and AP1903 IC50); format: cell-based, human; settings: for basal activity / basal signaling (in words): AP1903-independent SEAP activity, vs wild type; for relative SEAP activity Units (basal activity): no AP1903, higher SEAP = lower basal activity
How it was run: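 HEK293T/16 cells transiently co-transfected with iCasp9 mutant plasmid (800 ng–2 μg) and SRα-driven SEAP plasmid (500 ng) per million cells. Supernatants heat-treated 65 °C, 45 min, then SEAP read by 4-MUP hydrolysis fluorescence (ex/em 355/460 nm). Lower SEAP signal indicates higher iCasp9 activity, i.e. cell killing.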

PG13 packaging cells = format: cell-based
HEK293T/16 cells [5] = test: Western blot of protein expression and proteolysis; format: cell-based, human
Protocol: The lysates were collected and lysed on ice for 30 min. After pelleting cell debris, protein concentrations from overlying supernatants were measured in 96-well plates with BCA™ Protein Assay as recommended by the manufacturer. 30 μg of proteins were boiled in Laemmli sample buffer (Bio-Rad, Hercules, Calif.) with 2.5% 2-mercaptoethanol for 5 min at 95° C. before being separated by Criterion TGX 10% Tris/glylcine protein gel. Membranes were probed with 1/1000 rabbit anti-human caspase-9 polyclonal antibody followed by 1/10,000 HRP-conjugated goat anti-rabbit IgG F(ab′)2 secondary antibody (Bio-Rad). Protein bands were detected using Supersignal West Femto chemiluminescent substrate. To ensure equivalent sample loading, blots were stripped at 65° C. for 1 hour with Restore PLUS Western Blot Stripping Buffer before labeling with 1/10,000 rabbit anti-actin polyclonal antibody. Unless otherwise stated, all the reagents were purchased from Thermo Scientific.

Activated T cells = test: Control of T cell proliferation in vitro over 10 days with AP1903; format: cell-based, human; settings: AP1903 on days 0 and 4, 10 days

CC[C@H](C(=O)N1CCCC[C@H]1C(=O)O[C@H](CCc1ccc(OC)c(OC)c1)c1cccc(OCC(=O)NCCNC(=O)COc2cccc([C@@H](CCc3ccc(OC)c(OC)c3)OC(=O)[C@@H]3CCCCN3C(=O)[C@@H](CC)c3cc(OC)c(OC)c(OC)c3)c2)c1)c1cc(OC)c(OC)c(OC)c1 (relative stereo) [AP1903, 2-Piperidinecarboxylic acid, 1-[(2S)-1-oxo-2-(3,4,5-trimethoxyphenyl)butyl]-, 1,2-ethanediylbis[imino(2-oxo-2,1-ethanediyl)oxy-3,1-phenylene[(1R)-3-(3,4-dimethoxyphenyl)propylidene]]ester, [2S-[1(R*),2R*[S*[S*[1(R*),2R*]]]]]-(9Cl)]
adverse event considered possibly related ([1]; 1 volunteer at 1.0 mg/kg, facial flushing): vasodilatation | plasma level, % of maximal concentration ([1]; 2 hours post-dose): ~7% | plasma level, % of maximal concentration ([1]; 10 hours post-dose): ~1% | safety and tolerability [1]: proven safe in healthy volunteers; also recorded: safe and well tolerated at all dose levels; also recorded: proven safe at the required dose; also recorded: substantially no significant adverse effects | safety and tolerability ([1]; listed as API903): No serious adverse events | amount of AP1903 needed in vitro for effective signaling of cells [2]: 0.1 to 10 nM | time to normalization of bilirubin concentration (CD3+ΔCD19+ cells; patient 1, post-treatment): ≤ 24 h | time to disappearance of skin rash (CD3+ΔCD19+ cells; patient 2, post treatment): ≤ 24 h | time to resolution of skin and liver aGvHD (CD3+ΔCD19+ cells; patients with grade I/II aGVHD): ≤ 24 h | ablation of CD3+ΔCD19+ cells (CD3+ΔCD19+ cells; within 30 minutes of infusion, 0.4 mg/kg): > 90% | further reduction of CD3+ΔCD19+ cells (CD3+ΔCD19+ cells; within 24 hours): further log reduction | AP1903 dose sufficient to eliminate most modified T cells in vivo (human CD3+CD19+ T cells; T cells with wild-type iCasp9, i.p., 24 hours): 0.5 mg/kg

COC(=O)C[C@H](NC(=O)[C@H](C)NC(=O)[C@@H](NC(=O)OCc1ccccc1)C(C)C)C(=O)CF [zVAD-fmk] (Cbz-Val-Ala-Asp(OMe)-CH2F)
effect on CID-induced apoptosis [3]: inhibited

B1: D330E: chimeric modified caspase-9 polypeptide variant (protein)
chain: VDGFGDVGALESLRGNADLAYILSMEPCGHCLIINNVNFCRESGLRTRTGSNIDCEKLRRRFSSLHFMVEVKGDLTAKKMVLALLELARQDHGALDCCVVVILSHGCQASHLQFPGAVYGTDGCPVSVEKIVNIFNGTSCPSLGGKPKLFFIQACGGEQKDHGFEVASTSPEDESPGSNPEPDATPFQEGLRTFDQLEAISSLPTPSDIFVSYSTFPGFVSWRDPKSGSWYVETLDDIFEQWAHSEDLQSLLLRVANAVSVKGIYKQMPGCFNFLRKKLFFKTSASRA
basal activity / basal signaling (in words) (HEK293T/16 cells [4]): less basal activity than wild type caspase-9; also recorded: statistically lower basal signaling | in vivo cytotoxicity profile in response to AP1903 (human CD3+CD19+ T cells; NSG mice, AP1903 0-5 mg/kg i.p., spleen): titratable in vivo | CD19 mean fluorescence intensity (MFI) of transduced PG13 cells (PG13 packaging cells): enhanced CD19 mean fluorescence intensity | viral titers (PG13 packaging cells): higher viral titers

B2: D330A-N405Q: ΔCasp9 (res. 135-416) D330A N405Q, SEQ ID NO: 28 (protein)
chain: GFGDVGALESLRGNADLAYILSMEPCGHCLIINNVNFCRESGLRTRTGSNIDCEKLRRRFSSLHFMVEVKGDLTAKKMVLALLELARQDHGALDCCVVVILSHGCQASHLQFPGAVYGTDGCPVSVEKIVNIFNGTSCPSLGGKPKLFFIQACGGEQKDHGFEVASTSPEDESPGSNPEPDATPFQEGLRTFDQLAAISSLPTPSDIFVSYSTFPGFVSWRDPKSGSWYVETLDDIFEQWAHSEDLQSLLLRVANAVSVKGIYKQMPGCFQFLRKKLFFKTS
cleavage in response to AP1903 (HEK293T/16 cells [5]): impaired cleavage | relative SEAP activity Units (basal activity) (HEK293T/16 cells [4]; 1 μg iCasp9 per million cells): 205772 | relative SEAP activity Units (basal activity) (HEK293T/16 cells [4]; 2 μg iCasp9 per million cells): 174366 | basal activity / basal signaling (in words) (HEK293T/16 cells [4]): intermediate; also recorded: lower basal signaling compared to the wild-type caspase-9 | basal activity / basal signaling (in words) (HEK293T/16 cells [4]; listed as D330A N405Q): low to undetectable basal activity

B3: N405Q: ΔCasp9 (res. 135-416) N405Q, SEQ ID NO: 26 (protein)
chain: B2 chain with A196D
cleavage in response to AP1903 (HEK293T/16 cells [5]): impaired cleavage | T cell proliferation and survival (Activated T cells): indistinguishable from wild type caspase-9 polypeptide or D330A | relative SEAP activity Units (basal activity) (HEK293T/16 cells [4]; 1 μg iCasp9 per million cells): 179081 | relative SEAP activity Units (basal activity) (HEK293T/16 cells [4]; 2 μg iCasp9 per million cells): 175529 | CD19 mean fluorescence intensity (MFI) of transduced PG13 cells (PG13 packaging cells): higher levels of CD19; also recorded: enhanced CD19 mean fluorescence intensity; also recorded: higher CD19 MFIs than the other cohorts | viral titers (PG13 packaging cells): higher viral titers
